Measured values taken from patent US20230181750A1 (CRISPR THERAPEUTICS, published 2023).

B1: mask peptide P1 (peptide)
peptide: EVAPGKRWFYNHVKQVPHLV
notes: Selected by phage display (Screen 1, X15/X19 library)
B2: mask peptide P2 (peptide)
peptide: HEEVHMRPNKLSLTWAYTGPQLR
notes: as for B1
B3: mask peptide M3 (peptide)
peptide: CTMPPSPRSKVIC
notes: Selected by phage display (Screen 2, XnCXnCXn library)

Target: T1, anti-PTK7 antibody Ab181
T1 construct: also called unmasked antibody
Test: phage display selection against Ab181, X15/X19 library

Binder	binding result
B1	binds
B2	binds

Target: T1, anti-PTK7 antibody Ab181
Test: phage display selection against Ab181, XnCXnCXn library

Binder	binding result
WCTIPSSMSIRLC (Selected by phage display (Screen 2)) [mask peptide M8]	binds
CTMPVHTYSQWLC (Selected by phage display (Screen 2)) [mask peptide M12]	binds
CTFPNTTMQRTFC (Selected by phage display (Screen 2)) [mask peptide M4]	binds
CYIGLRMVPCFHM (Selected by phage display (Screen 2)) [mask peptide M10]	binds
VCTYPPAHRTRFC (Selected by phage display (Screen 2)) [mask peptide M6]	binds
CTYPPRFHMHWLC (Selected by phage display (Screen 2)) [mask peptide M13]	binds
B3	binds
CHIGKRPVPCLWI (Selected by phage display (Screen 2)) [mask peptide M9]	binds
CTMPYHIHSIGLC (Selected by phage display (Screen 2)) [mask peptide M7]	binds
CTMPSHAVASFLC (Selected by phage display (Screen 2)) [mask peptide M11]	binds
CTYPSWVAYIRFC (Selected by phage display (Screen 2)) [mask peptide M5]	binds
CTHVAQWAIKAFC (Selected by phage display (Screen 2)) [mask peptide M14]	binds
